The labels stand for the following.
B1: CPEB3 Ribozyme (parent)
chain: GGGGGCCACAGCAGAAGCGUUCACGUCGCGGCCCCUGUCAGAUUCUGGUGAAUCUGCGAAUUCUGCUGU

The variants in the data set derive from B1. Kind of data set: self-cleavage, relative activity (ratio to wild type); higher = more cleavage; co-transcriptional.
G3U A60G: the self-cleavage was found to be 0.0646.
To G3U A60U belongs 0.0237.
Under G3U A60C stands 0.0666; under G3U G30U, 0.0357; under G3U G30C, 0.0267.
Under G3U G30A stands 0.0662; under G3U C39A, 0.0589.
As to G3U C39G, the self-cleavage is 0.0714.
To G3U C39U belongs 0.043; to G3U G5A, 0.0231.
Consider G3U G5C, for which the self-cleavage is 0.0208.
Under G3U C7U stands 0.0677; under G3U C7A, 0.0696; under G3C U62C, 0.0572.
Under G3C U62G stands 0.0946.
Turning to G3U U44A, the self-cleavage turned out to be 0.0987.
Under G3U U44G stands 0.115; under G3U U44C, 0.127; under G3A G28A, 0.113.
To G3A G28U belongs 0.104; to G3A G28C, 0.0675.
To G3A G4C belongs 0.165.
Consider G3A G4A, for which the self-cleavage came to 0.204.
To G3A G4U belongs 0.0692; to G3C U67A, 0.239.
Under G3C U67G stands 0.219.
Under G3C U49C stands 0.149; under G3C U49G, 0.039; under G3U G50C, 0.145.
For G3U G48A, the self-cleavage was 0.245.
To G3A G31C belongs 0.122; to G3A G31A, 0.224.
Take G3U A51U: the self-cleavage was 0.17.
Under G3U A51C stands 0.105; under G3A G5A, 0.101.
Under G3A G5U stands 0.0857; under G3A U53G, 0.284.
Under G3A U53C stands 0.416; under G3C U64C, 0.0655; under G3C U64A, 0.0618.
For G3U C9G, the self-cleavage was found to be 0.446.
As to G3C C24U, the self-cleavage stood at 0.0425.
For G3C C24G, the self-cleavage was 0.0519.
Turning to G3C G41U, the self-cleavage is 0.0159.
Under G3C G41A stands 0.0418.
To G3C C33A belongs 0.0485.
To G3C C33U belongs 0.0583; to G3C A52G, 0.0775.
For the variant G3C A52U, the self-cleavage was determined as 0.075.
Under G3C A52C stands 0.0723.
Under G3A U49A stands 0.627; under G3A U49G, 0.392.
Under G3C G19C stands 0.0344; under G3C G19A, 0.0368; under G3U C35G, 0.0418.
Consider G3U C35A, for which the self-cleavage amounted to 0.0237.
Under G3C G11A stands 0.0327; under G3C G11C, 0.0692; under G3C G11U, 0.11.
Under G3C C27G stands 0.06; under G3C C27U, 0.0443.
To G3A U62A belongs 0.312; to G3A U62G, 0.392.
In the case of G3A U62C, the self-cleavage was determined as 0.357.
To G3A G68U belongs 0.86; to G3A G68A, 0.852.
Turning to G3A G68C, the self-cleavage was found to be 0.764.
With G3C U20G, the self-cleavage was 0.0823.
To G3C U20A belongs 0.0845.
To G3C G5A belongs 0.0417.
To G3C G5U belongs 0.00743.
On to G3U A15U, for which the self-cleavage turned out to be 0.0782.
Turning to G3U A15C, the self-cleavage worked out at 0.0817.
To G3U A15G belongs 0.141.
Under G3C G17C stands 0.0303.
Under G3C G17U stands 0.0348; under G3C G17A, 0.0395.
Turning to G3C C34G, the self-cleavage worked out at 0.783.
Under G3A C63G stands 0.317; under G3C A42C, 0.0214.
Under G3C A42U stands 0.0888; under G3U G56U, 0.109.
Under G3U G56C stands 0.0723; under G3C U69C, 0.495.
For the variant G3C U69G, the self-cleavage was found to be 0.222.
To G3U G28U belongs 0.0309; to G3U G28C, 0.0382.
On to G3U G14C, for which the self-cleavage is 0.0411.
For G3U G14U, the self-cleavage worked out at 0.0458.
Under G3C U61G stands 0.0927; under G3C U46A, 0.113; under G3C U46C, 0.126.
Consider G3U G41A, for which the self-cleavage was found to be 0.0442.
To G3U G41C belongs 0.0828.
As for G3U G41U, the self-cleavage is 0.0372.
On to G3U A10U, for which the self-cleavage was determined as 0.424.
To G3U A10C belongs 0.332; to G3A U67C, 0.819; to G3A U67G, 0.818.
Consider G3A U38G, for which the self-cleavage turned out to be 0.113.
To G3A U55C belongs 0.187; to G3A U55G, 0.291.
To G3A G56U belongs 0.467; to G3A G56A, 0.26.
To G3U U20A belongs 0.0443; to G3C U53C, 0.0464.
On to G3C U53G, for which the self-cleavage amounted to 0.0664.
Under G3C C35U stands 0.0352; under G3U G65A, 0.171.
Under G3U G65C stands 0.0613; under G3U U61C, 0.0446; under G3U U61A, 0.0525.
Under G3A G17U stands 0.0783; under G3A G17A, 0.0767; under G3A G17C, 0.0537.
As to G3A G37U, the self-cleavage came out at 0.0837.
To G3A G37A belongs 0.143; to G3C C54G, 0.0518; to G3C C9A, 0.511.
Under G3C C9G stands 0.166.
Under G3U G68A stands 0.554.
For G3C G48U, the self-cleavage was 0.16.
On to G3C G48C, for which the self-cleavage stood at 0.105.
Under G3U U43C stands 0.0372; under G3U U43A, 0.0999.
Under G3C G56U stands 0.033; under G3U G58C, 0.0675.
For the variant G3U G58A, the self-cleavage was determined as 0.0734.
To G3C C32A belongs 0.0311; to G3A G48U, 0.722; to G3A G48A, 0.69.
As to G3U C33U, the self-cleavage was found to be 0.0906.
For the variant G3U C33A, the self-cleavage was 0.102.
Under G3C C22A stands 0.0184; under G3C C22U, 0.0738; under G3C C22G, 0.0359.
Regarding G3C G58U, the self-cleavage turned out to be 0.216.
To G3C G58A belongs 0.0258; to G3U G47U, 0.175; to G3U G47C, 0.177.
Under G3C C39U stands 0.0426.
Regarding G3C C39G, the self-cleavage was 0.0769.
G3U G37U: the self-cleavage was determined as 0.0515.
To G3U G37C belongs 0.035; to G3U G37A, 0.0344.
Under G3C U36C stands 0.0612; under G3C U36A, 0.0318; under G3C U36G, 0.329.
Turning to G3C G14A, the self-cleavage worked out at 0.0364.
In the case of G3C G14C, the self-cleavage was 0.0467.
To G3C G14U belongs 0.0909.
To G3U C34U belongs 0.381.
Under G3U C34A stands 0.687.
On to G3A G30C, for which the self-cleavage turned out to be 0.103.
To G3A G30A belongs 0.181; to G3C U55C, 0.0498.
Under G3C U55G stands 0.0373; under G3C U55A, 0.0482.
Under G3C U43A stands 0.0425; under G3C U43G, 0.104; under G3C A15C, 0.0371.
Turning to G3C A15G, the self-cleavage was 0.113.
Under G3C C29G stands 0.0545; under G3C A40G, 0.
To G3C A40C belongs 0.0512; to G3C A40U, 0.016; to G3U C63U, 0.114.

These data come from the RNAGym collection of RNA variant scans (doi:10.7554/elife.80360).
